From patent publication US20040157774A1 (published 2004)

Biological target: T1, Axl-Fc (R&D Systems) (UniProt P30530-2 26-440, limits assumed)
T1 construct: Bought reagent (R&D Systems, Minneapolis); also called Axl-Fc receptor; not shown: Fc part of the bought fusion
T1 sequence (looked up): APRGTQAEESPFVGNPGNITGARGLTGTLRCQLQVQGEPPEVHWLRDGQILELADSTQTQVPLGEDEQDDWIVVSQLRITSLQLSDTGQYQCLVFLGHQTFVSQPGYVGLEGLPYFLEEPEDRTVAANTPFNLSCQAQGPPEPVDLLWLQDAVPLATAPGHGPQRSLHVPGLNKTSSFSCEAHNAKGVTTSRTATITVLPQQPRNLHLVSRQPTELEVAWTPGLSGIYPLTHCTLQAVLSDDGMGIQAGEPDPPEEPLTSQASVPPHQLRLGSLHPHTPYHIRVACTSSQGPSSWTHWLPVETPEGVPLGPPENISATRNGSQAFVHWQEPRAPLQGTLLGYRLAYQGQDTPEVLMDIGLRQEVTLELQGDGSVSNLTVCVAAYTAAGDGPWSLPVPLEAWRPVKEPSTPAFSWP
Test: EIA: plate coated with Axl-Fc, Gas6_Flag detected with HRP anti-Flag M2 antibody, OD490

- EC50: ~0.02 µg/mL
B1: human Gas6_Flag (human Growth Arrest Specific Gene 6 protein with a Flag epitope tag at the C-terminus) (ligand)
chain: ALLPAREATQFLRPRQRRAFQVFEEAKQGHLERECVEELCSREEAREVFENDPETDYFYPRYLDCINKYGSPYTKNSGFATCVQNLPDQCTPNPCDRKGTQACQDLMGNFFCLCKAGWGGRLCDKDVNECSQENGGCLQICHNKPGSFHCSCHSGFELSSDGRTCQDIDECADSEACGEARCKNLPGSYSCLCDEGFAYSSQEKACRDVDECLQGRCEQVCVNSPGSYTCHCDGRGGLKLSQDMDTCEDILPCVPFSVAKSVKSLYLGRMFSGTPVIRLRFKRLQPTRLVAEFDFRTFDPEGILLFAGGHQDSTWIVLALRAGRLELQLRYNGVGRVTSSGPVINHGMWQTISVEELARNLVIKVNRDAVMKIAVAGDLFQPERGLYHLNLTVGGIPFHEKDLVQPINPRLDGCMRSWNWLNGEDTTIQETVKVNTRMQCFSVTERGSFYPGSGFAFYSLDYMRTPLDVGTESTWEVEVVAHIRPAADTGVLFALWAPDLRAVPLSVALVDYHSTKKLKKQLVVLAVEHTALALMEIKVCDGQEHVVTVSLRDGEATLEVDGTRGQSEVSAAQLQERLAVLERHLRSPVLTFAGGLPDVPVTSAPVTAFYRGCMTLEVNRRLLDLDEAAYKHSDITAHSCPPVEPAAADYKDDDDK
notes: Expressed from full-length cDNA in HEK293 cells grown with vitamin K1 and purified on anti-Flag M2 resin; 2'; also called Gas6_tag
